Read-outs that look alike come from different tables or passages of the source.
Legend:
MYB70 [1] = biological target: T1, MYB70 (Arabidopsis thaliana, UniProt O22179 1-309); test: EMSA
MYB70 [2] = biological target: T1, MYB70; test: EMSA; remark: listed apart in the source

B1: PER57 probe (PER probe) (dsDNA)
DNA 1: GCCTCAACTAATAAGTTGTTATGTGCAA
DNA 2: TTGCACATAACAACTTATTAGTTGAGGC
B1: binds (MYB70 [1]).

B2: GPAT5 probe (dsDNA)
DNA 1: AATCATAGTTTTGTTACAAGCGAAATCTGAAA
DNA 2: TTTCAGATTTCGCTTGTAACAAAACTATGATT
B2: binds (MYB70 [1]).

B3: GH3.3 probe (dsDNA)
DNA 1: ATCAAGAATTAGTTTTAGTTATCAATAAATAGGA
DNA 2: TCCTATTTATTGATAACTAAAACTAATTCTTGAT
B3: binds (MYB70 [2]).
